According to the nanobody polyreactivity screen of Harvey et al. (2022):

Assay: yeast display, Sf9 membrane polyspecificity reagent, FACS + sequencing; frameworks hold sequencing errors
Method in brief: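 Genes from sorted yeast were amplified by colony PCR, read by MiSeq 2 × 250 sequencing and filtered on CDR length. These cells carried a synthetic nanobody library in Saccharomyces cerevisiae BJ5465 and were sorted by FACS into low and high (top ~1%) gates on anti-HA and streptavidin fluorescence. Polyreactivity is labelled according to the gate of origin.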

Sequence	polyreactivity (PSR sort gate)
QVQLVESGGGLVQAGGSLRLSCAASGNTLRYYAMGWYRQAPGKERELVAAITRRGGSTYADSVKGRFTISRDNAKNTVYLQMNSLKPEDTAVYYCNRVLYDHSFPYNRGYDYWGQGTQVTVSS	high polyreactivity
QDQLVESGGGLVQAGGSLRLSCAASGRTFQYNAMGWDRQARGSERELVAAISSSGGSTYYADSVKGRFTISRDNAKNTVYLQMNSLKPEDTAVYYCNAYSQSWNFYGDGDYWGQGTQVTVSS	low polyreactivity
QVQLVESGGGLVQAGGSLRLSCAASGNIFLYYAMGWYRKAPGKERELVADIDSSGASTYYADSVKGRFTISRDNAKNTVYLQMNSLKPEDTAVYYCPAEFHWWYAGYDYGYWGLGTQVTVSS	low polyreactivity
QVQLVESGGGLVQAGGSLRLSCAASGSIFVGNAMGWYRQAPGKERELVAAISSSGGSTYYADSVKGRFTISRDYAKNSVYLQMNSLKPEYTAVYDCAADTYSTSGYYYWGQGTQVTVSS	low polyreactivity
QVHLVESGVGLVQAGCSLRLSCAASGIIFLTNAMGWYRQAPGKERELVAAITAIGGSTYYADSVKGRFTISRDNAKNTVYLQINSLKPEDTAVYYCAADFSYVYYLYDYWGQGTQVTVSS	low polyreactivity
QVQLVESGGGLVQAGGSLRLSCAASGFTFYNYAMGWYRQAPGKERELVAVISRSGGRTKYADSVKGRFTISRDNAKNTVYLQMNSLKPEDTAVYYCAARPSPGYYAYRYAPAIHYDYWGQGTQVTVSS	high polyreactivity
QDQHVESGGGVVQARGSLRLICDASGFTIQRSAMGWYRQAPGKERELVAAISSGGSTYYADSVKGRFTFSRDNAKNTVYLQMNSLKPEDTAVYYCAARPIPRYYGKFWRVDYWGQGTQVTVSS	high polyreactivity
QVQLVESGGGLVQAGGSLRLSCAASGRTFYSNAKGWSRQAPGKERELVAGISKRGTITYYADSVKGRFTISRDNAKNTVYLQMNSLKPEDTAVYYCAAKPPSYIVKGDGRDDYWGQGTQVTVSS	high polyreactivity
QVQLVESGGGIVQAGGSLRLSCAASGRTFYAYTMGWYRQAPGKETELVAANSRTGGRTYYADSVKGRFTISRDNAKNTVYLQMNSLKPEDTAVYYCAAGSKPGIQFRSVYSAYRYYYCGQGTQVTVSS	high polyreactivity
QVQLVESGGCLVQAGGSLRLSCAASGSIFRYYAMGWNRQAPGKERELVAAISSSGDNTYYADSVKGRFTISRDNAKNTVYLQMNSLKPEDTAVYYCAVRGERRYIYDYWGQGSQVTVSS	high polyreactivity
QVQLVESGGGLVQAGGSLRLSCADSGSIFVAYAMRWYRPAPGKERELVAAISSSGGTTYYADSVKGRFTISRDNAKNTVYLQMNSLKPEDTAVYYSAARDYKYYYWGQGTQVTVSS	high polyreactivity
QVQLVESGGGLVQAGGSLRLSWAASGGTFYFNAMGWYLQAAGKEWELVATIRYSGGSTYYADSVKGRFTISRDNAKNTAYLQMNSLKPADTAVYYCNARPRYLSPYRPFKYNYWGQGTQVTVSS	high polyreactivity
QVQLVESGGGLVQAGGSLRLSCAASGSIFYVNAMGWYRQAPGKERELVAVNADSVKGRFTISRDNAKNTVYLQMNSLKPEDTAVYYCAAGVNSTTRIYDYWGQGTQVTVSS	low polyreactivity
QVQLVESGGGLVQAGGSLRLSCAASGFIFRYYAMGWYRQAPGKERELVASISYSGGTTYYADSVKGRFTISRDNAKNTVYLQMNSLKPEDTAVYYCNVYSRTHYQTYTDDYWGQGTQVTVSS	high polyreactivity
QVQLVESGGGLVQAGGSLRLSCAASGNTFIRYAMGWYRQAPGKEREFVATITKRGGSTYYADSVKGRFTISRDNAKNTVYLQMNSLKPEDTAVYYCARGPSGTPNGNTPYGDNRYNSWGQGTQVTVSS	low polyreactivity
QVQLVESGGGLVQAGGSLRLSCAASGSIFKTNAMGWYRQAPRKERELVAGISNVGSTNYADSVKGRFTISRDNAKNTVYLQMNSLKPEDTAVYYCAAPYTSQTIPDYVRYFIEYDYWGQATQVTVSS	low polyreactivity
QVQLVESGGGLVQAGGSLRLSCAASGFIFDDNAMGWYRQAPGKERELVAAITSGGGSTYYADSVKGRFTISRDNAKNTVYLQMNSLKPEDTAVYYCARDQTWSYQPWYYLSYPQYEYWGQGTQVTVSS	low polyreactivity
QVQLVESGGGVVQAGGSLRLSCAASGMGWYRQAPGKERELVATITTGGTYADSVKGRFTISRDNAKNTVYLQMNSLKPEDTAVYYCAADGLGSVYYLRYNYWGQGTQVTVSS	low polyreactivity
QGQLVESGGGLVQAGGSLRLSCAASGRTLYYYAMGWYRQAPGKERELVASIDWDSGITDYADSVTGRFTISRANAKNTVYLQMNILTPEDTAVYYCAAVRVTKKYSYEYWGQGTQVTVSA	low polyreactivity
QVQLVESGGGLVQAGGSLRLSCAASGSTFAHYAMGWYRQAPGKERELVAAITTSGSSTYYADSVKGRFTISRDNAKNTVYLQMNSLKPEDTAVYYCNARGSYYHYRGERNYWGQGTQVTVSS	low polyreactivity
QVQLVESGGGLVQAGGSLRLSCAASGFTFIRNAMGWYRQAPGKERELVAAISRSGGSTYYADSVKGRFTISRDNAKKTVYLQMNSQKPEDTAVYYCAVTLYLKWQGGAYDYWGQGTQVTVSS	low polyreactivity
QVQLVESGGVLVQAGGSLRLSCADSGSTFFFYAMGWYRHAPGKERELLAAISSTGRTYYADSVKGRFTISRDNAKNSVYLQMNSLKPEETAVYYCAARIYSGYSYWGQGTQVTVSS	high polyreactivity

Sequence	polyreactivity (PSR sort gate)
QVQLVESGGGLVQAGGSLRLSCAASGSIIFSYAMGWYRQAPGKEREFVAAITGSGGSTYYADSVKGRFTISRDNAKNTVYLQMNSLKPEDTAVYYCARPQWRDWYGYWGQGTQVTVSS	low polyreactivity
QVQLVESGGALVQAGGSVRLSCAASGRTFGTYAMGWYRQAPGKERELVAAISTRGGRTFYADSVKGRFTISRDNAKNTVYLQMNSLKPEDTAVYYCAAYYKYYEYDYWGQVTQVTVSS	high polyreactivity
QVQLVESGGGLVQAGGSLRLSCAASGYTFVIYAMGWYRQAPGKERELVAAITTIGGRTYYADSVKGRFTISRDNAKNTVYLQMNSLKPEDTAVYYCAADIRSNRLYDGGYWGQGTHVTVSS	low polyreactivity
QVQLVESGGGLVQAGGSLRLSCAPSGYTFWLYAMGWYRQAPGKERELVAAITWNGGSTYYADSVKGRFTISRDIAKNTVYLQMISLNPEYTAVYYCAAEAIIYLQWFDYWGQGTQVTVSS	low polyreactivity
QVQLVESGGGLVQAGGSLRLSCAASGYILGKNVMGWYRPAPGKERELVAAISSGGRTYYADSVKGRFTISRDNAKNTVYLQMNSLKPEDTAVYYCAPDLKYYGYDYWGQGTQVTVSS	high polyreactivity
QVQLGESRRGLVQAGGSLRLSCAASGITFWYNATGWYRQSPGKERELDAAISRSAGSTYYADSVKGRFTISRDNAKNTVYLQMNSLKPEDTAVYYCAAKTPGRYYYWGQGTQVTVSS	high polyreactivity
QVQLVESGGGLVQAGGSLRLSCAASGFTIHNYAMGWYRQAPGKERELVARITRSGGTTYYADSVKGRFTISRDNAKNTVYLQMNSLKPEDTAVYYCAARRYGYTSITWYDYWGQGTQVTVSS	high polyreactivity
QVQLVESGGGLVQAGGSLRLSCAASGSTFWYYAMGWYRQAPGKERELVAAITRDGTTYYADSVKGRFTISRDNAKNTVYLQMNSLKPEDTAVYYCAVDIDNWSEYDYWGQGTQVTVSS	low polyreactivity
QVQRVESGGGLVQAGGSLRLSGAASGFTFHSYAMGWFRQPPGKERELVAAISTGGTRTYYADSVKGRFTISRDNAKNTVYLQMNSLKPEDTAVYYCAADLSRRVRIYSKYDSWGQGTQVTVSS	high polyreactivity
QVQLVESGGGLVQAGGSLRLSCAASGFIFKGYAMGWYRQAPGKERELVAAISKGGGNTYYADSVMGRFSISRDNAKNTVYLQMNSLKPEDTAVYYCAAVPTRYRSYTYTYGGYNYWGQGTQVTVSS	high polyreactivity
QVQLVESGGGLVQAGGSLRLSCAASGFTLGHYAMGWYRQAPGKERELVAVITSGSSTNYADSVKGRFTISRDNAKNTVYLQMNSLKPDDTAVYYCAAEDPYFKWLYYYWGQGTQVTVSS	low polyreactivity
QVQLVESGGGLVQAGGSLRLSCAASGRTFFHYAMGWYRQAPGKERELVAGISSGGRTKYADSVKGRFTISRDNAKNTVYLQMNSLKPEDTAVYYCAASYIVWLTRGAPRKRFDYWGQGTQVTVSS	high polyreactivity
QVQLVESGGGLVQAGGSLRLSCAASGRIFRANTMGWYRQAPGKERELVATSSKNGGRTYYADSVKGRFTISRDNAKNTVYLQMNSLKPEDTAVYYCNAEWRGWRFLEYGSYIYQSGYWGQGTQVTVSS	high polyreactivity
QVQLVESGGGLVQAGGSLRLSCAASGSIFWSYDMGWYRQAPGKERELVATITSGDSTYYADSVKGRFTISRDNAKNTVYLQMNSLKPEDTAVYYCNVDVSVEVAYWGQGTQVTVSS	low polyreactivity
HVQLQESGGGLEQAGGSLRLSCAASGYISDIGTMGWYRQAPGKEREFVANIVVGSTTNYADSVKGRFTISRDNAKNTVYLQPESGRYRGVLLRGWLLAVGKFTYWGQGTQETVSS	low polyreactivity
QVQLVESGGGLVQAGGSLRLSCAASGRILPSNAMGWYRQAPGKERELVAGITSGGSTDYADSVKGRFTISRDNAKNTVFLQMNSLKPEDTAVYYCNKPFPYYPDGPNGYDYWGQGTQVTVSS	low polyreactivity
QVQLVESGGRLVQAGGSLRLSCAASGRIFKYYAMGWYRPAPGKERELVAAINRDGGRTYYADSVKGRFTISRDTAKISVYLQMNSLKPEDTAVYYCAASYGYVYTTSLDYWGQGTQVTVSS	low polyreactivity
QVQLVESGGGLVQAGGSLRLSCAASGYTVWGYAMGWYRQAPGKERELVADITISGGSTYYADSVKGRFTISRDNAKNTVYLQMNSLKPDDSAVYYCAASRAFSWWLSYDYWGQGTQVTVSS	high polyreactivity
QVQLVESGGGLVQAGGSLRLSCPASGSIFKYYAMGWYRQAPGKDRELVAPITDRGSSTYYADSVKGRFTISRDNAKNTVYLQMNSLKPEDTAVYYCAAVYYAFYRFGYWGQGTQVTVSS	high polyreactivity
QVQLVESGGGLVQAGGSLRLSCAASGRIFTGYAMGWYRQAPGKERELVAAISSRGGSTYYADSVKGRFTISRDNAKNTVYLQMNSLKPEDTAVYYCNAYQWRHRYTMYYWGQGTQVTVSS	high polyreactivity
QVQLVESGGGLVQAGGSLRLSCAASGITSARYAMGWYRQAPGKERELVAAITLSGVRTYYADSVKGRFTISRDQAKNTVYLQMNSLKPEDTAVYYCNTVYYSKWGQGTQVTVSS	low polyreactivity
